In US20050186593A1 (SALK INSTITUTE FOR BIOLOGICAL STUDIES, published 2005):
Blank lines part the entries; values can stand above or below the molecule they belong to.

Columns and labels:
[1] = target: Xenopus activin receptor xActRIIB, expressed in Xenopus embryos from injected synthetic RNA (Xenopus) (UniProt P27041); experiment: cell-based or functional assay
[2] = target: T1, Mouse activin receptor, full length (encoded by clone pmActR2), expressed on transfected COS cells (mouse, UniProt P27038 20-513); experiment: competition with 125I activin A on COS cells transfected with pmActR2
T1 construct: also called mActRII; ActRII
T1 sequence (P27038 20-513): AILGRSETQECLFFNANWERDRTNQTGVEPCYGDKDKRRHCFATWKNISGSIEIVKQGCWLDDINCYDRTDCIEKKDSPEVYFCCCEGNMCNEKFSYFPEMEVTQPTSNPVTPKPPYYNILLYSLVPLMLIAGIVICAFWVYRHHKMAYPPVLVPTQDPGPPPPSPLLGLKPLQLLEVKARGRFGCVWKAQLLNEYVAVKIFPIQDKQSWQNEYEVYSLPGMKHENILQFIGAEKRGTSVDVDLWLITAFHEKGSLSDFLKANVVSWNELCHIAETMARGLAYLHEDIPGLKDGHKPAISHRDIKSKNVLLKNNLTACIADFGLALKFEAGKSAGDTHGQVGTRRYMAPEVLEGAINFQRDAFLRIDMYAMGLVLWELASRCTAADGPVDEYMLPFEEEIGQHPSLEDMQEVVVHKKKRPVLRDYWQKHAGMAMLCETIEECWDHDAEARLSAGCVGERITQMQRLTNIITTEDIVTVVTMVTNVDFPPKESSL
Method: (§1) 10⁵ COS cells transfected with either pmActR1 or pmActR2, or 10⁶ untransfected COS cells, were plated in 6 well dishes and allowed to grow overnight. The cells were washed 2× with HDB, 0.1% BSA, and incubated at 22° for 90 minutes in 0.5 ml HDB, 0.1% BSA containing 100,000 cpm (approximately 1 ng, 75 pM) ¹²⁵I activin A (5 μg activin A was iodinated by chloramine T oxidation to a specific activity of 50-90 μCi/μg; iodinated activin A was purified on a 0.7×20 cm G-25 column) and varying amounts of unlabeled competitor hormone. Following binding, the cells were washed 3× with cold HDB, solubilized in 0.5 ml 0.5 N NaOH, removed from the dish and radioactivity was measured in a gamma counter. Data presented in FIG. 5 are expressed as % specific binding, where 100% specific binding is the difference between binding in the absence of competitor and binding in the presence of a 100 fold molar excess of unlabeled activin A. Binding parameters were determined using the program LIGAND [Munson P. J. and Rodbard, D., Anal. Biochem. 107:220-259 (1980)].
This affinity and specificity of binding match those observed following binding of activin A to a number of other activin-responsive cell types. […]

[3] = target: T2, Mouse activin receptor, C-terminally truncated (encoded by clone pmActR1), expressed on transfected COS cells (mouse, UniProt P27038 20-354); experiment: 125I activin A competition radioreceptor assay on COS cells transfected with pmActR1; Scatchard/LIGAND
T2 construct: pmActR1 codes for a protein of 342 amino acids, the last 17 of them from the vector; It lacks a complete intracellular kinase domain; the real chain is truncated and its signal peptide (1-19) is removed
T2 sequence (P27038 20-354 limits assumed, form in doubt): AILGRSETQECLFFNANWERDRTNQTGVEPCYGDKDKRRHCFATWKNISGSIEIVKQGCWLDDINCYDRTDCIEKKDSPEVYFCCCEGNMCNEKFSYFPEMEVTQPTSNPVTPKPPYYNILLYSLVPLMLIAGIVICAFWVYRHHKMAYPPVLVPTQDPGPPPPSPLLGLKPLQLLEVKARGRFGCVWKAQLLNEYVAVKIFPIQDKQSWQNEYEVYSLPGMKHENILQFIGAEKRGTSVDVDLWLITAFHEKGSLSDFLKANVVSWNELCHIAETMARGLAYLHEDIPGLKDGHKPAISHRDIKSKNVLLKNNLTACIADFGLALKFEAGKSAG
Method: as §1
(§2) To verify that the cloned receptor is activin specific, competition binding experiments were performed on COS cells transiently transfected with either pmActR1 or pmActR2. […] This binding affinity is consistent with that measured on other activin-responsive cell types [see, for example, Campen, C. A. and Vale, W., Biochem. Biophys. Res. Comm. […]

[4] = target: T1, Mouse activin receptor, full length …; experiment: 125I activin A competition radioreceptor assay on COS cells transfected with pmActR2; LIGAND
Method: as §1, §2

Chain of Xenopus activin receptor xActRIIB, expressed in Xenopus embryos from injected synthetic RNA (Xenopus) (P27041 other isoform, or with tags, fused parts or gaps): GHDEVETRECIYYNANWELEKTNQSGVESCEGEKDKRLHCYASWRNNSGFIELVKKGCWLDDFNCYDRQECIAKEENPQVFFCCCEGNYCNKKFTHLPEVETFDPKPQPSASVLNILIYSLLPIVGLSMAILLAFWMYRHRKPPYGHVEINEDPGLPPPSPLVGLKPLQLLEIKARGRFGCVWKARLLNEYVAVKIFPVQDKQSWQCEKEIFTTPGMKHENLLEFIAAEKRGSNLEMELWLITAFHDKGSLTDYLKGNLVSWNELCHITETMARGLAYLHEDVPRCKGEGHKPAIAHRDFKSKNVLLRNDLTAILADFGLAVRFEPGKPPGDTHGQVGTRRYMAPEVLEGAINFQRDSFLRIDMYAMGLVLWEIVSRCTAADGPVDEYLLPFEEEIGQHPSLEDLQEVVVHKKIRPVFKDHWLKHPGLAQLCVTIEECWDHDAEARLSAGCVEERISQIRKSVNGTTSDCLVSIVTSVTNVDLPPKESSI

muscle-specific actin RNA in animal caps (ribonuclease protection assay); sensitivity to activin against control embryos, embryos injected with 0.4 ng xActRIIB RNA [1]: 10 fold | muscle-specific actin RNA in animal caps (ribonuclease protection assay); sensitivity to activin against control embryos, embryos injected with 2.0 ng xActRIIB RNA [1]: 100 fold
Molecule: Purified porcine activin A (from UniProt P03970 309-424) (ligand)

fold lower potency than activin A in competition [2]: ~10 fold
B1: Recombinant human (rh) inhibin A (ligand)
chain 1: STPLMSWPWSPSALRLLQRPPEEPAAHANCHRVALNISFQELGWERWIVYPPSFIFHYCHGGCGLHIPPNLSLPVPGAPPTPAQPYSLLPGAQPCCAALPGTMRPLHVRTTSDGGYSFKYETVPNLLTQHCACI
chain 2: GLECDGKVNICCKKQFFVSFKDIGWNDWIIAPSGYHANYCEGECPSHIAGTSGSSLSFHSTVINHYRMRGHSPFANLKSCCVPTKLRPMSMLYYDDGQNIIKKDIQNMIVEECGCS

Kd [3]: 0.18 nM | Kd [4]: 0.18 nM
B2: Recombinant human (rh) activin A (ligand, UniProt P08476 311-426, looked up)
chain: B1 chain 2
notes: also called 125I activin A; iodinated activin A

binding result [2]: binds
B3: Recombinant human (rh) activin B (ligand, UniProt P09529 293-407, looked up)
chain: GLECDGRTNLCCRQQFFIDFRLIGWNDWIIAPTGYYGNYCEGSCPAYLAGVPGSASSFHTAVVNQYRMRGLNPGTVNSCCIPTKLSTMSMLYFDDEYNIVKRDVPNMIVEECGCA
